Test results taken from IntAct's records for PubMed 17167421.

Target: syt2_rat Syt2 (UniProt P29101)

Substance | effect of a mutation on the interaction
Botulinum neurotoxin type B (Clostridium botulinum) (from UniProt P10844) F1194A | disrupting interaction strength
Botulinum neurotoxin type B (Clostridium botulinum) (from UniProt P10844) F1204A | disrupting interaction strength
Botulinum neurotoxin type B (Clostridium botulinum) (from UniProt P10844) K1192E | decreasing interaction strength
Botulinum neurotoxin type B (Clostridium botulinum) (from UniProt P10844) V1118D | decreasing interaction strength
